# Test results as given in patent publication US7988958B2, “Enterococcus and Streptococcus strains and bacteriocins” (The United States of America as represented by the …, priority 2005, dated 2011).
# B1: Bacteriocin 760: bacteriocin produced by Enterococcus durans/faecium/hirae NRRL B-30745 (strain 760); amino acid sequence SEQ ID NO 2 (protein, listed as Streptococcus cricetus)
# chain: NRWYCNSAAGGVGGAAVCGLAGYVGEAKENIAGEVRKGWGMAGGFTHNKACKSFPGSGWASG
# What was measured:
# [1] = tested on: E. coli O157:H7 904; experiment: IEF gel tested for growth inhibition of test strain; format: cell-based; details: for Inhibiting Activity measured by IEF: CAP, active band, E. coli O157:H7 904; for Inhibiting Activity IEF: purified bacteriocin, E. coli O157:H7
# Method: (§1) CAPs and bacteriocins were electrophoresed in about 15% […] gel weight, about 1% SDS (9×12 cm) in Tri-glycine buffer. After electrophoresis at about 100 mA for approximately 4 hours, gels were fixed with a solution containing approximately 15% ethanol and approximately 1% acetic acid. The gels were then washed with distilled water for approximately 4 hours. To determine molecular weights of protein fractions, the gel was stained with a solution containing approximately 0.21% Coomassi Blue G-250, about 40% ethanol, and about 7% acetic acid. Washed gels were tested against three target bacteria, C. jejuni NCTC 11168, E. coli 0157:H7 904, and S. enteritidis 204 by the method of Bhunia et al. (Journal of Industrial Microbiology, Volume 2, 319-322, 1987; herein incorporated by reference). The gels were placed in Petri dishes, covered with 5% blood-semi-solid Campylobacter agar (about 0.75%) or semi-solid MPA, and seeded with cells of the test strains. Plates containing C. jejuni were incubated at about 42° C. for approximately 48 hours under microaerobic conditions, E. coli 0157:H7 and S. enteriditidis at about 37° C. for approximately 24 hours. Assessment was based on visualization of zones of the inhibited growth of the test strains in the presence of bacteriocins.
# (§2) Specimens of bacteriocins were placed on IEF gels (pH approximately 4.4-10.0) (Novex, San Diego, Calif.). The gels were run at about 100V for about 1 hour, 200V for about 2 hour, and 500V for about 30 minutes in XCM II™ Mini-Cell (Novex). Gels were washed with distilled water for about 4 hours without fixation followed by staining with Coomassie Blue G-250 to determine isoelectric points (pI) of the bacteriocins and their ability to inhibit the growth of the test strains as presented in FIGS. 1 and 2 and in Table 2.
# [2] = tested on: S. enteritidis 204; experiment: as above; format: cell-based; details: for Inhibiting Activity measured by IEF: CAP, active band; for Inhibiting Activity IEF: purified bacteriocin
# Method: as §1, §2
# [3] = tested on: Campylobacter jejuni; experiment: Antagonistic activity of products purified by Methods A and B; format: cell-based; parameters: Specific Activity UE/ml: unit not given here
# [4] = tested on: C. jejuni NCTC 11168; experiment: Influence of enzymes on bacteriocin activity (spot test); format: physicochemical, Campylobacter jejuni
# [5] = tested on: Campylobacter spp. B-3; experiment: MIC by agar diffusion; format: cell-based; details: Campylobacter spp. strain B-3
# Method: (§3) The susceptibility of Campylobacter spp. to purified preparations of bacteriocins 760 and E50-52 was determined using strains isolated from broiler chicks as described above in Example 1. Antagonistic activity of the bacteriocins was assessed on the basis of minimum inhibitory concentrations (MICs) which were determined by agar diffusion. […] All the tested bacteriocins are highly antagonistic to the Campylobacter spp. strains.
# [6] = tested on: Campylobacter spp. Cez-4; experiment: MIC by agar diffusion; format: cell-based; details: Campylobacter spp. strain Cez-4
# Method: as §3
# [7] = tested on: Campylobacter spp. F-1; experiment: MIC by agar diffusion; format: cell-based; details: Campylobacter spp. strain F-1
# Method: as §3
# [8] = tested on: Campylobacter spp. G-1; experiment: MIC by agar diffusion; format: cell-based; details: Campylobacter spp. strain G-1
# Method: as §3
# [9] = tested on: Campylobacter spp. G-2; experiment: MIC by agar diffusion; format: cell-based; details: Campylobacter spp. strain G-2
# Method: as §3
# [10] = tested on: Campylobacter spp. I/U-1; experiment: MIC by agar diffusion; format: cell-based; details: Campylobacter spp. strain I/U-1
# Method: as §3
# [11] = tested on: Campylobacter spp. Ind18/2; experiment: MIC by agar diffusion; format: cell-based; details: Campylobacter spp. strain Ind18/2
# Method: as §3
# [12] = tested on: Campylobacter spp. K-10; experiment: MIC by agar diffusion; format: cell-based; details: Campylobacter spp. strain K-10
# Method: as §3
# [13] = tested on: Campylobacter spp. P-21; experiment: MIC by agar diffusion; format: cell-based; details: Campylobacter spp. strain P-21
# Method: as §3
# [14] = tested on: Campylobacter spp. P-24; experiment: MIC by agar diffusion; format: cell-based; details: Campylobacter spp. strain P-24
# Method: as §3
# [15] = tested on: Campylobacter spp. P-27; experiment: MIC by agar diffusion; format: cell-based; details: Campylobacter spp. strain P-27
# Method: as §3
# [16] = tested on: Campylobacter spp. P-28; experiment: MIC by agar diffusion; format: cell-based; details: Campylobacter spp. strain P-28
# Method: as §3
# [17] = tested on: Campylobacter spp. P-2; experiment: MIC by agar diffusion; format: cell-based; details: Campylobacter spp. strain P-2
# Method: as §3
# [18] = tested on: Campylobacter spp. P-31; experiment: MIC by agar diffusion; format: cell-based; details: Campylobacter spp. strain P-31
# Method: as §3
# [19] = tested on: Campylobacter spp. P-32; experiment: MIC by agar diffusion; format: cell-based; details: Campylobacter spp. strain P-32
# Method: as §3
# [20] = tested on: S. enteritidis 1; experiment: MIC by spot test; format: cell-based
# [21] = tested on: S. enteritidis 4; experiment: MIC by spot test; format: cell-based
# [22] = tested on: S. enteritidis 204; experiment: MIC by spot test; format: cell-based
# [23] = tested on: S. choleraesuis 434/4; experiment: MIC by spot test; format: cell-based
# [24] = tested on: S. choleraesuis 370; experiment: MIC by spot test; format: cell-based
# [25] = tested on: S. typhimurium 383/60; experiment: MIC by spot test; format: cell-based
# [26] = tested on: E. coli HB101; experiment: MIC by spot test; format: cell-based
# [27] = tested on: E. coli O157:H7 Y-63; experiment: MIC by spot test; format: cell-based
# [28] = tested on: Y. enterocolitica 03; experiment: MIC by spot test; format: cell-based
# [29] = tested on: Y. enterolitica 09; experiment: MIC by spot test; format: cell-based, Y. enterocolitica
# [30] = tested on: Citrobacter freundi; experiment: MIC by spot test; format: cell-based
# [31] = tested on: Staphylococcus aureus; experiment: MIC by spot test; format: cell-based
# [32] = tested on: Y. pseudotuberculosis; format: cell-based
molecule,measurement,setting,value
Bacteriocin 50-52: bacteriocin produced by Enterococcus durans/faecium/hirae NRRL B-30746 (strain 50-52); amino acid sequence SEQ ID NO 1 (TTKNYGNGVCNSVNWCQCGNVWASCNLATGCAAWLCKLA; listed as Enterococcus faecium),Inhibiting Activity measured by IEF,[1],band 1
same,Inhibiting Activity IEF,[1],+Band 1
same,Inhibiting Activity measured by IEF,[2],band 1
same,Inhibiting Activity IEF,[2],+Band 1
same,Activity UE/ml,[3]; isolated by Method A,"6,400 UE/ml"
same,Specific Activity UE/ml,[3]; isolated by Method A,"85,333"
same,Activity UE/ml,[3]; isolated by Method B,"12,800 UE/ml"
same,Specific Activity UE/ml,[3]; isolated by Method B,"320,000"
same,Antimicrobial activity after treatment,[4]; treated with beta-chymotrypsin,lost their antimicrobial activity
same,Antimicrobial activity after treatment,[4]; treated with lipase,retained it
same,Antimicrobial activity after treatment,[4]; treated with lysozyme,retained it
same,Antimicrobial activity after treatment,[4]; treated with papain,lost their antimicrobial activity
same,Antimicrobial activity after treatment,[4]; treated with proteinase K,lost their antimicrobial activity
same,MICs,[5],0.05 µg/mL
same,MICs,[6],0.1 µg/mL
same,MICs,[7],0.1 µg/mL
same,MICs,[8],0.05 µg/mL
same,MICs,[9],0.1 µg/mL
same,MICs,[10],0.05 µg/mL
same,MICs,[11],0.05 µg/mL
same,MICs,[12],0.05 µg/mL
same,MICs,[13],0.05 µg/mL
same,MICs,[14],0.05 µg/mL
same,MICs,[15],0.1 µg/mL
same,MICs,[16],0.1 µg/mL
same,MICs,[17],0.05 µg/mL
same,MICs,[18],0.1 µg/mL
same,MICs,[19],0.1 µg/mL
same,MICs,[20],0.1 µg/mL
same,MICs,[21],0.1 µg/mL
same,MICs,[22],0.2 µg/mL
same,MICs,[23],0.1 µg/mL
same,MICs,[24],0.1 µg/mL
same,MICs,[25],0.1 µg/mL
same,MICs,[26],0.1 µg/mL
same,MICs,[27],0.1 µg/mL
same,MICs,[28]; Y. enterolitica 03,0.1 µg/mL
same,MICs,[29],0.4 µg/mL
same,MICs,[30],0.1 µg/mL
same,MICs,[31],0.4 µg/mL
same,MICs,[32]; Y. pseudotuberculosis,0.4 µg/mL
B1,Inhibiting Activity measured by IEF,[1],band 1
same,Inhibiting Activity IEF,[1],+Band 1
same,Inhibiting Activity measured by IEF,[2],band 1
same,Inhibiting Activity IEF,[2],+Band 1
same,Activity UE/ml,[3]; isolated by Method A,"12,800 UE/ml"
same,Specific Activity UE/ml,[3]; isolated by Method A,"71,111"
same,Activity UE/ml,[3]; isolated by Method B,"51,200 UE/ml"
same,Specific Activity UE/ml,[3]; isolated by Method B,"284,444"
same,Antimicrobial activity after treatment,[4]; treated with beta-chymotrypsin,lost their antimicrobial activity
same,Antimicrobial activity after treatment,[4]; treated with lipase,retained it
same,Antimicrobial activity after treatment,[4]; treated with lysozyme,retained it
same,Antimicrobial activity after treatment,[4]; treated with papain,lost their antimicrobial activity
same,Antimicrobial activity after treatment,[4]; treated with proteinase K,lost their antimicrobial activity
same,MICs,[5],0.05 µg/mL
same,MICs,[6],0.1 µg/mL
same,MICs,[7],0.05 µg/mL
same,MICs,[8],0.05 µg/mL
same,MICs,[9],0.05 µg/mL
same,MICs,[10],0.05 µg/mL
same,MICs,[11],0.05 µg/mL
same,MICs,[12],0.05 µg/mL
same,MICs,[13],0.1 µg/mL
same,MICs,[14],0.05 µg/mL
same,MICs,[15],0.05 µg/mL
same,MICs,[16],0.05 µg/mL
same,MICs,[17],0.05 µg/mL
same,MICs,[18],0.05 µg/mL
same,MICs,[19],0.05 µg/mL
same,MIC,[20],200 µg/mL
same,MIC,[21],400 µg/mL
same,MIC,[22],200 µg/mL
same,MIC,[23],400 µg/mL
same,MIC,[24],400 µg/mL
same,MIC,[25],400 µg/mL
same,MIC,[26],100 µg/mL
same,MIC,[27],1600 µg/mL
same,MIC,[28]; Y. enterocolitica 03,100 µg/mL
same,MIC,[29],100 µg/mL
same,MIC,[30],1600 µg/mL
same,MIC,[31],1600 µg/mL
same,MIC,[32],3200 µg/mL
